Where “and” joins values, the source holds several entries; their conditions need not be identical. Identical values can stand only once.
System: E. coli lacking EPSPS
Experiment: Glyphosate resistance comparison among rice EPSPS mutants: growth of transformed E. coli on M9 medium with different glyphosate concentrations
Assay type: cell-based, Escherichia coli
Conditions: M9 medium; for glyphosate concentration of the medium on which the strain can grow: tested 0, 0.5, 2, 4, 5, 25, 75, 100 mM glyphosate, FIG. 2, FIG. 3
Experimental: a) PCR system: According to the primer and template mixed PCR system corresponding to the target vector in the above table, the forward primer was 1.25 μl, the reverse primer was 1.25 μl, the template plasmid was 2 μl, the Q5 PCR master mix was 12.5 μl, and ddH2O was […].
b) PCR reaction conditions were as following: the annealing temperature was set according to the annealing temperature corresponding to the target carrier in the above table.
c) Took out 5 μl of the obtained PCR product and added it to the loading buffer for agarose gel electrophoresis. A band with a size of about 4.5 kb was considered successful.
d) Used NEB's KLD enzyme mixture to remove the template and connected the PCR product. The connection system was 5 μl KLD buffer, 1 μl KLD MIX, 1 μl PCR product, and ddH2O 3 μl. After ligating at room temperature for 5 min, transformed it into E. coli.
e) The ligation product was transformed into Dh5a competent E. coli lacking EPSPS. After resuscitation, the cells were washed twice with M9 medium, and then the washed cells were spread on M9 medium and cultured for 48 h. Sequenced the grown single colony (Tsingke Biological Technology Co., Ltd.), and selected the correct mutant to save for future use.
OsWt represents the wild type rice EPSPS(SEQ ID NO:2). […] OsGA represents the mutated rice EPSPS with mutation G172A. (SEQ ID NO:7) OsPS represents the mutated rice EPSPS with mutation P177S. (SEQ ID NO:8) OsGAPS represents the mutated rice EPSPS with mutation G172A and P177S. (SEQ ID NO:9) OsGAVA represents the mutated rice EPSPS with mutation G172A and V403A(SEQ ID NO:4). OsPSVA represents the mutated rice EPSPS with mutation P177S and V403A(SEQ ID NO:5). OsGPV represents the mutated rice EPSPS with mutation G172A, P177S and V403A(SEQ ID NO:6). OsTIPS represents the mutated rice EPSPS with mutation T173I and P177S. (SEQ ID NO: 35). OsTIPT represents the mutated rice EPSPS with mutation T173I and P177T. (SEQ ID NO:36). OsTIPSVA represents the mutated rice EPSPS with mutation T173I, P177S and V403A. (SEQ ID NO:37). OsTIPTVA represents the mutated rice EPSPS with mutation T173I, P177T and V403A. (SEQ ID NO:38). CP4 represents the wild type EPSPS from Agrobacterium tumefaciens. (SEQ ID NO:39)
Each product obtained from the above steps were transformed into E. coli lacking EPSPS. By detecting the growth of the transformed Escherichia coli on M9 medium containing different glyphosate concentrations (0 mM, 0.5 mM, 2 mM, 4 mM, 5 mM, 25 mM, 75 mM, 100 mM), the 1 mM glyphosate here was equivalent to […] glyphosate acid, the glyphosate resistance of rice EPSPS mutants was verified.

Molecule	glyphosate concentration of the medium on which the strain can grow	growth on 0.5 mM glyphosate medium	other results
OsGAPS (protein, This sequence is synthesized in lab.) MAAKAEEIVLQPIREISGAVQLPGSKSLSNRILLLSALSEGTTVVDNLLNSEDVHYMLEALKALGLSVEADKVAKRAVVVGCGGKFPVEKDAKEEVQLFLGNAATAMRSLTAAVTAAGGNATYVLDGVPRMRERPIGDLVVGLKQLGADVDCFLGTECPPVRVKGIGGLPGGKVKLSGSISSQYLSALLMAAPLALGDVEIEIIDKLISIPYVEMTLRLMERFGVKAEHSDSWDRFYIKGGQKYKSPGNAYVEGDASSASYFLAGAAITGGTVTVQGCGTTSLQGDVKFAEVLEMMGAKVTWTDTSVTVTGPPREPYGKKHLKAVDVNMNKMPDVAMTLAVVALFADGPTAIRDVASWRVKETERMVAIRTELTKLGASVEEGPDYCIITPPEKLNITAIDTYDDHRMAMAFSLAACADVPVTIRDPGCTRKTFPNYFDVLSTFVRN	–	–	growth on medium containing 0 mM glyphosate (0 mM glyphosate, complementation of E. coli EPSPS function): cannot grow
OsGAVA (protein, This sequence is synthesized in lab.) MAAKAEEIVLQPIREISGAVQLPGSKSLSNRILLLSALSEGTTVVDNLLNSEDVHYMLEALKALGLSVEADKVAKRAVVVGCGGKFPVEKDAKEEVQLFLGNAATAMRPLTAAVTAAGGNATYVLDGVPRMRERPIGDLVVGLKQLGADVDCFLGTECPPVRVKGIGGLPGGKVKLSGSISSQYLSALLMAAPLALGDVEIEIIDKLISIPYVEMTLRLMERFGVKAEHSDSWDRFYIKGGQKYKSPGNAYVEGDASSASYFLAGAAITGGTVTVQGCGTTSLQGDVKFAEVLEMMGAKVTWTDTSVTVTGPPREPYGKKHLKAVDVNMNKMPDAAMTLAVVALFADGPTAIRDVASWRVKETERMVAIRTELTKLGASVEEGPDYCIITPPEKLNITAIDTYDDHRMAMAFSLAACADVPVTIRDPGCTRKTFPNYFDVLSTFVRN	≤ 75 mM	–	–
OsWt: wild type rice EPSPS (SEQ ID NO:2), chloroplast transit peptide removed (protein, This sequence is synthesized in lab.) MAAKAEEIVLQPIREISGAVQLPGSKSLSNRILLLSALSEGTTVVDNLLNSEDVHYMLEALKALGLSVEADKVAKRAVVVGCGGKFPVEKDAKEEVQLFLGNAGTAMRPLTAAVTAAGGNATYVLDGVPRMRERPIGDLVVGLKQLGADVDCFLGTECPPVRVKGIGGLPGGKVKLSGSISSQYLSALLMAAPLALGDVEIEIIDKLISIPYVEMTLRLMERFGVKAEHSDSWDRFYIKGGQKYKSPGNAYVEGDASSASYFLAGAAITGGTVTVQGCGTTSLQGDVKFAEVLEMMGAKVTWTDTSVTVTGPPREPYGKKHLKAVDVNMNKMPDVAMTLAVVALFADGPTAIRDVASWRVKETERMVAIRTELTKLGASVEEGPDYCIITPPEKLNITAIDTYDDHRMAMAFSLAACADVPVTIRDPGCTRKTFPNYFDVLSTFVRN	–	cannot grow	–
OsGA (protein, This sequence is synthesized in lab.) MAAKAEEIVLQPIREISGAVQLPGSKSLSNRILLLSALSEGTTVVDNLLNSEDVHYMLEALKALGLSVEADKVAKRAVVVGCGGKFPVEKDAKEEVQLFLGNAATAMRPLTAAVTAAGGNATYVLDGVPRMRERPIGDLVVGLKQLGADVDCFLGTECPPVRVKGIGGLPGGKVKLSGSISSQYLSALLMAAPLALGDVEIEIIDKLISIPYVEMTLRLMERFGVKAEHSDSWDRFYIKGGQKYKSPGNAYVEGDASSASYFLAGAAITGGTVTVQGCGTTSLQGDVKFAEVLEMMGAKVTWTDTSVTVTGPPREPYGKKHLKAVDVNMNKMPDVAMTLAVVALFADGPTAIRDVASWRVKETERMVAIRTELTKLGASVEEGPDYCIITPPEKLNITAIDTYDDHRMAMAFSLAACADVPVTIRDPGCTRKTFPNYFDVLSTFVRN	–	can grow	–
OsPS (protein, This sequence is synthesized in lab.) MAAKAEEIVLQPIREISGAVQLPGSKSLSNRILLLSALSEGTTVVDNLLNSEDVHYMLEALKALGLSVEADKVAKRAVVVGCGGKFPVEKDAKEEVQLFLGNAGTAMRSLTAAVTAAGGNATYVLDGVPRMRERPIGDLVVGLKQLGADVDCFLGTECPPVRVKGIGGLPGGKVKLSGSISSQYLSALLMAAPLALGDVEIEIIDKLISIPYVEMTLRLMERFGVKAEHSDSWDRFYIKGGQKYKSPGNAYVEGDASSASYFLAGAAITGGTVTVQGCGTTSLQGDVKFAEVLEMMGAKVTWTDTSVTVTGPPREPYGKKHLKAVDVNMNKMPDVAMTLAVVALFADGPTAIRDVASWRVKETERMVAIRTELTKLGASVEEGPDYCIITPPEKLNITAIDTYDDHRMAMAFSLAACADVPVTIRDPGCTRKTFPNYFDVLSTFVRN	–	can grow	–
OsTIPTVA (protein, This sequence is synthesized in lab.) MAAKAEEIVLQPIREISGAVQLPGSKSLSNRILLLSALSEGTTVVDNLLNSEDVHYMLEALKALGLSVEADKVAKRAVVVGCGGKFPVEKDAKEEVQLFLGNAGIAMRTLTAAVTAAGGNATYVLDGVPRMRERPIGDLVVGLKQLGADVDCFLGTECPPVRVKGIGGLPGGKVKLSGSISSQYLSALLMAAPLALGDVEIEIIDKLISIPYVEMTLRLMERFGVKAEHSDSWDRFYIKGGQKYKSPGNAYVEGDASSASYFLAGAAITGGTVTVQGCGTTSLQGDVKFAEVLEMMGAKVTWTDTSVTVTGPPREPYGKKHLKAVDVNMNKMPDAAMTLAVVALFADGPTAIRDVASWRVKETERMVAIRTELTKLGASVEEGPDYCIITPPEKLNITAIDTYDDHRMAMAFSLAACADVPVTIRDPGCTRKTFPNYFDVLSTFVRN	100 mM and 75 mM	–	–
OsPSVA (protein, This sequence is synthesized in lab.) MAAKAEEIVLQPIREISGAVQLPGSKSLSNRILLLSALSEGTTVVDNLLNSEDVHYMLEALKALGLSVEADKVAKRAVVVGCGGKFPVEKDAKEEVQLFLGNGATAMRSLTAAVTAAGGNATYVLDGVPRMRERPIGDLVVGLKQLGADVDCFLGTECPPVRVKGIGGLPGGKVKLSGSISSQYLSALLMAAPLALGDVEIEIIDKLISIPYVEMTLRLMERFGVKAEHSDSWDRFYIKGGQKYKSPGNAYVEGDASSASYFLAGAAITGGTVTVQGCGTTSLQGDVKFAEVLEMMGAKVTWTDTSVTVTGPPREPYGKKHLKAVDVNMNKMPDAAMTLAVVALFADGPTAIRDVASWRVKETERMVAIRTELTKLGASVEEGPDYCIITPPEKLNITAIDTYDDHRMAMAFSLAACADVPVTIRDPGCTRKTFPNYFDVLSTFVRN	≤ 4 mM	–	–

From patent US20250277196A1, “EPSPS MUTANTS AND METHOD OF ITS USES” (CROPEDIT BIOTECHNOLOGY INC., priority 2021, published 2025)
